Target: FLAG-SpbK (Bacillus subtilis (ICEBs1))

fold decrease in cellular levels of NAD^+ 15 to 30 minutes after induction of yonE in cells expressing spbK (untagged proteins): 100 fold
Substance: YonE-Myc (natural protein)

— publication PMC11984713
